Assay [1] has as its target MadB(S54A) (S. oneidensis). The assay can be described thus: not stated; dimeric structures of the MadB catalytic loop mutants, data in Table S3.
In assay [2] the target is MadB(N45A) (S. oneidensis). The description is as above.
Assay [3] has as its target MadB(N43A) (S. oneidensis). The assay is described as above.
Assay [4] concerns the target MadB(T49A) (S. oneidensis). The assay is described as above.
In assay [5] the target is MadB, standalone hot dog malonyl-ACP decarboxylase of Shewanella oneidensis (S. oneidensis). The experiment in a line: AUC; sedimentation analysis (methods: sedimentation velocity, 50,000 rpm, interference optics), 0.02 M Tris pH 7.5, 0.5 M NaCl, 20 °C, no reducing agents.
The target is the same in assay [6]. The experiment in a line: SEC; gel filtration chromatography of the purified recombinant protein.
Assay [7] addresses MadB(D79A) (S. oneidensis). The assay can be described thus: not stated; dimeric structures of the MadB catalytic loop mutants, data in Table S3.
Assay [8] deals with MadB(H47A) (S. oneidensis). Described as above.

The source of these data is PMC8666670, “Malonyl-acyl carrier protein decarboxylase activity promotes fatty acid and cell envelope biosynthesis in Proteobacteria” (The Journal of Biological Chemistry, 2021).

The stoichiometry N is a count of units in the complex or per binding partner.

Substance MadB(S54A) (enzyme) yielded a stoichiometry N in assay [1] of 2.
MadB(N45A) (enzyme) yielded a stoichiometry N in assay [2] of 2.
With MadB(N43A) (enzyme), in assay [3], the stoichiometry N is 2.
In assay [4], MadB(T49A) (enzyme) showed a stoichiometry N of 2.
Turning to “MadB, standalone hot dog malonyl-ACP decarboxylase of Shewanella oneidensis (enzyme)”, the stoichiometry N in assay [5] and in assay [6] was 2 each time.
Consider MadB(D79A) (enzyme), for which the stoichiometry N in assay [7] worked out at 2.
MadB(H47A) (enzyme) came in with a stoichiometry N in assay [8] of 2.
